For experiment [1], the target named is human HER2 on cells (HER2 positive human carcinoma cells; CT26-huHER2 transfected cells; human cardiomyocytes) (human) (UniProt P04626). The experiment in a line: cell-based or functional assay.
Experiment [2] concerns the target human HER2 on cells (HER2 positive human carcinoma cells; CT26-huHER2 transfected cells; human cardiomyocytes) (human, UniProt P04626 23-1255). Put plainly: cell-based or functional assay.
The next experiment deals with T1, Human CD3 ϵ -Fc (human, UniProt P07766 23-126).
T1 construct: not shown: Fc part, captured on anti-human Fc biosensors
T1 sequence (P07766 23-126): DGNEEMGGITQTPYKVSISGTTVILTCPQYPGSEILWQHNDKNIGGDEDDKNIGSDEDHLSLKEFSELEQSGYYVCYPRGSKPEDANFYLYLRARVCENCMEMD
The experiment in a line: BLI (ForteBio Octet Red); target-Fc loaded on anti-human Fc biosensor, AC2275 as analyte 1010 nM to 16 nM. (In general: In BLI a coated tip is dipped into the sample, and binding shifts an interference pattern.)

A further experiment concerns the target T2, Cyno CD3 ϵ -Fc (cynomolgus monkey, UniProt Q95LI5 22-117).
T2 construct: also called cynomolgus monkey CD3; not shown: Fc part, captured on anti-human Fc biosensors
T2 sequence (looked up): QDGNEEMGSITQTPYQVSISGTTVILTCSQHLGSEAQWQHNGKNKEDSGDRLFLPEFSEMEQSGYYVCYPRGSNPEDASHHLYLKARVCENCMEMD
The description is as above.

In experiment [3] the target is Biotinylated CD3CEµ antigen (Creative Biomart). The experiment in a line: BLI (ForteBio BLItz); biotinylated CD3 antigen on streptavidin biosensor, scFv dilution series in solution.
Biotinylated CD3CEµ antigen (Creative Biomart), sequence (P07766 23-126): as the sequence (P07766 23-126) above

Usually Kd stands for the constant that tells how readily two partners part at equilibrium. Low values mean a tighter complex, high ones a looser complex.

B1: pJB0244, masked anti-HER2 x anti-CD3 bispecific antigen binding polypeptide with two XTEN and two RSR2295 release segments (bispecific antibody, part only; not given: AE868 XTEN, scFv linker, not shown: small tags and cut ends)
chain, part: HHHHHHSPAGSPTSTEEGTSESATPESGPGTSTEPSEGSAPGTSESATPESGPGSEPATSGSETPGTSESATPESGPGSEPATSGSETPGTSESATPESGPGTSTEPSEGSAPGSPAGSPTSTEEGTSESATPESGPGSEPATSGSETPGTSESATPESGPGSPAGSPTSTEEGSPAGSPTSTEEGTSTEPSEGSAPGTSESATPESGPGTSESATPESGPGTSESATPESGPGSEPATSGSETPGSEPATSGSETPGSPAGSPTSTEEGTSTEPSEGSAPGTSTEPSEGSAPGGSAPEAGRSANHTPAGLTGPDIQMTQSPSSLSASVGDRVTITCKASQDVSIGVAWYQQKPGKAPKLLIYSASYRYTGVPSRFSGSGSGTDFTLTISSLQPEDFATYYCQQYYIYPYTFGQGTKVEIKGATPPETGAETESPGETTGGSAESEPPGEGEVQLVESGGGLVQPGGSLRLSCAASGFTFTDYTMDWVRQAPGKGLEWVADVNPNSGGSIYNQRFKGRFTLSVDRSKNTLYLQMNSLRAEDTAVYYCARNLGPSFYFDYWGQGTLVTVSSELVVTQEPSLTVSPGGTVTLTCRSSNGAVTSSNYANWVQQKPGQAPRGLIGGTNKRAPGTPARFSGSLLGGKAALTLSGVQPEDEAVYYCALWYPNLWVFGGGTKLTVLGATPPETGAETESPGETTGGSAESEPPGEGEVQLLESGGGIVQPGGSLKLSCAASGFTFNTYAMNWVRQAPGKGLEWVARIRSKYNNYATYYADSVKDRFTISRDDSKNTVYLQMNNLKTEDTAVYYCVRHENFGNSYVSWFAHWGQGTLVTVSSEAGRSANHTPAGLTGP
Take B1: in experiment [1], the EC50 (pM), cytotoxicity (Caspase-Glo 3/7), BT-474 cells with human PBMC came out at 66000 pM; the EC50 (pM), cytotoxicity (Caspase-Glo 3/7), SK-Br3 cells with human PBMC came to 19500 pM; the EC50 (pM), cytotoxicity (Caspase-Glo 3/7), SKOV-3 cells with human PBMC was determined as 14100 pM.

B2: AC2275, bivalent anti-HER2, anti-CD3 XTENylated binder (HER2-XPAT of Example 24) (bispecific antibody)
chain: HHHHHHSPAGSPTSTEEGTSESATPESGPGTSTEPSEGSAPGTSESATPESGPGSEPATSGSETPGTSESATPESGPGSEPATSGSETPGTSESATPESGPGTSTEPSEGSAPGSPAGSPTSTEEGTSESATPESGPGSEPATSGSETPGTSESATPESGPGSPAGSPTSTEEGSPAGSPTSTEEGTSTEPSEGSAPGTSESATPESGPGTSESATPESGPGTSESATPESGPGSEPATSGSETPGSEPATSGSETPGSPAGSPTSTEEGTSTEPSEGSAPGTSTEPSEGSAPGGSAPEAGRSANHTPAGLTGPATSGSETPGTDIQMTQSPSSLSASVGDRVTITCKASQDVSIGVAWYQQKPGKAPKLLIYSASYRYTGVPSRFSGSGSGTDFTLTISSLQPEDFATYYCQQYYIYPYTFGQGTKVEIKGATPPETGAETESPGETTGGSAESEPPGEGEVQLVESGGGLVQPGGSLRLSCAASGFTFTDYTMDWVRQAPGKGLEWVADVNPNSGGSIYNQRFKGRFTLSVDRSKNTLYLQMNSLRAEDTAVYYCARNLGPSFYFDYWGQGTLVTVSSGGGGSELVVTQEPSLTVSPGGTVTLTCRSSNGAVTSSNYANWVQQKPGQAPRGLIGGTNKRAPGTPARFSGSLLGGKAALTLSGVQPEDEAVYYCALWYPNLWVFGGGTKLTVLGATPPETGAETESPGETTGGSAESEPPGEGEVQLLESGGGIVQPGGSLKLSCAASGFTFNTYAMNWVRQAPGKGLEWVARIRSKYNNYATYYADSVKDRFTISRDDSKNTVYLQMNNLKTEDTAVYYCVRHENFGNSYVSWFAHWGQGTLVTVSSGTAEAASASGEAGRSANHTPAGLTGPPGSPAGSPTSTEEGTSESATPESGPGTSTEPSEGSAPGSPAGSPTSTEEGTSTEPSEGSAPGTSTEPSEGSAPGTSESATPESGPGSEPATSGSETPGSEPATSGSETPGSPAGSPTSTEEGTSESATPESGPGTSTEPSEGSAPGTSTEPSEGSAPGSPAGSPTSTEEGTSTEPSEGSAPGTSTEPSEGSAPGTSESATPESGPGTSTEPSEGSAPGTSESATPESGPGSEPATSGSETPGTSTEPSEGSAPGTSTEPSEGSAPGTSESATPESGPGTSESATPESGPGSPAGSPTSTEEGTSESATPESGPGSEPATSGSETPGTSESATPESGPGTSTEPSEGSAPGTSTEPSEGSAPGTSTEPSEGSAPGTSTEPSEGSAPGTSTEPSEGSAPGTSTEPSEGSAPGSPAGSPTSTEEGTSTEPSEGSAPGTSESATPESGPGSEPATSGSETPGTSESATPESGPGSEPATSGSETPGTSESATPESGPGTSTEPSEGSAPGTSESATPESGPGSPAGSPTSTEEGSPAGSPTSTEEGSPAGSPTSTEEGTSESATPESGPGTSTEPSEGSAPGAAEPEA
notes: also called HER2-XPAT 2275
Consider B2, for which, in experiment [2], the “EC50, % CD69+ T cells in human PBMC co-cultured with SK-OV-3 cells (flow cytometry)” value stood at 3.63 nM; the “IC50, T-cell directed cytotoxicity (CellTiter-Glo ATP assay), BT474 cells with human PBMC” value stood at 1.36 nM; the “IC50, T-cell directed cytotoxicity (CellTiter-Glo ATP assay), MCF7 cells with human PBMC” value is over 26.7 nM; the “IC50, T-cell directed cytotoxicity (CellTiter-Glo ATP assay), SKOV3 cells with human PBMC” value was 15.3 nM. In addition, the Kd in the experiment with Human CD3 ϵ -Fc was 111 nM. Further, in the experiment with Cyno CD3 ϵ -Fc, the Kd amounted to 170 nM.

B3: CD3.9 scFv (scFv)
scFv: ELVVTQEPSLTVSPGGTVTLTCRSSTGAVTTSNYANWVQQKPGQAPRGLIGGTNKRAPGTPARFSGSLLGGKAALTLSGVQPEDEAEYYCALWYSNLWVFGGGTKLTVLGATPPETGAETESPGETTGGSAESEPPGEGEVQLLESGGGLVQPGGSLKLSCAASGFTFNTYAMNWVRQAPGKGLEWVARIRSKYNNYATYYADSVKDRFTISRDDSKNTAYLQMNNLKTEDTAVYYCVRHGNFGNSYVSWFAYWGQGTLVTVSS
Molecule B3 displayed a Kd in experiment [3] of 75 nM.

B4: CD3.25 scFv (scFv)
scFv: ELVVTQEPSHTVSPGGTVTLTCRSSTGAVTSSNYANWVQQKPGQAPRGLIGGTIKRAPGTPARFSGSLLGGKAALTLSGVQPEDEAEYYCALWYPNLWVFGGGTKLTVLGATPPETGAETESPGETTGGSAESEPPGEGEVQLLESGGGIVQPGGSLKLSCAASGFTFNTYAMNWVRQAPGKGLEWVARIRSKYNNYATYYADSVKDRFTISRDDSKNTVYLQMNNLKTEDTAVYYCVRHENFGNSYVSWFAHWGQGTLVTVSS
Regarding B4, in experiment [3], the dissociation constant (Kd) was 215 nM. Against the preceding molecule, the Kd is about 2.9-fold higher.

B5: CD3.26 scFv (scFv)
scFv: ELVVTQEPSHTVSPGGTVTLTCRSSTGEVTTSNYANWVQQKPGQAPRGLIGGTIKRAPGTPARFSGSLLGGKAALTLSGVQPEDEAEYYCALWYPNLWVFGGGTKLTVLGATPPETGAETESPGETTGGSAESEPPGEGEVQLLESGGGIVQPGGSLKLSCAASGFTFNTYAMNWVRQAPGKGLEWVARIRSKYNNYATYYADSVKDRFTISRDDSKNTVYLQMNNLKTEDTAVYYCVRHENFGNSYVSWFAHWGQGTLVTVSS
As to B5, the Kd in experiment [3] is 221 nM.

B6: CD3.24 scFv (scFv)
scFv: ELVVTQEPSLTVSPGGTVTLTCRSSNGEVTTSNYANWVQQKPGQAPRGLIGGTIKRAPGTPARFSGSLLGGKAALTLSGVQPEDEAVYYCALWYPNLWVFGGGTKLTVLGATPPETGAETESPGETTGGSAESEPPGEGEVQLLESGGGIVQPGGSLKLSCAASGFTFNTYAMNWVRQAPGKGLEWVARIRSKYNNYATYYADSVKDRFTISRDDSKNTVYLQMNNLKTEDTAVYYCVRHENFGNSYVSWFAHWGQGTLVTVSS
Molecule B6 came in with an equilibrium dissociation constant (Kd) in experiment [3] of 296 nM. This Kd and that of the molecule before are within 1.5-fold of each other.

B7: CD3.23 scFv (scFv)
scFv: ELVVTQEPSLTVSPGGTVTLTCRSSNGAVTSSNYANWVQQKPGQAPRGLIGGTNKRAPGTPARFSGSLLGGKAALTLSGVQPEDEAVYYCALWYPNLWVFGGGTKLTVLGATPPETGAETESPGETTGGSAESEPPGEGEVQLLESGGGIVQPGGSLKLSCAASGFTFNTYAMNWVRQAPGKGLEWVARIRSKYNNYATYYADSVKDRFTISRDDSKNTVYLQMNNLKTEDTAVYYCVRHENFGNSYVSWFAHWGQGTLVTVSS
In experiment [3], B7 showed a Kd of 175 nM.

The record behind these values is patent US20210054077A1 (AMUNIX PHARMACEUTICALS, published 2021).
